Tests used:
[1] = target: RSV-F (amino acids 1-529), (Extracellular Domain) protein (His tag), ABIN2006856 (respiratory syncytial virus) (UniProt P03420); test: ELISA, RSV F coated, anti-human IgG-HRP
[2] = target: SARS-CoV-2 (antigen of the ELISA of Example 17; protein not specified) (SARS-CoV-2); test: ELISA by the method of Example 15, SARS-CoV-2 antigen

| Substance | EC50 [1] | EC50 [2] |
| --- | --- | --- |
| SEQ ID NO: 204, b1b2-Fc-ACE2 (NRP1, K358E, K373E, R513E, K514E, K516E) (Fc fusion) | 91.5 nM | – |
| SEQ ID NO: 139, b1b2-b1b2-Fc (NRP1, E319A, double b1b2) (Fc fusion) | – | 81.7 nM |
| SEQ ID NO: 128, b1b2-Fc (NRP1, K358E, K373E, R513E, K514E, K516E) (Fc fusion) | 42.5 nM | – |
